Assay results: patent US20180037651A1 (Janssen / Centocor, published 2018)

What was measured:
[1] = molecular target: T1, cyno GPRC5D (cyno, UniProt Q9NZD1 1-343 (human entry)); assay: FACS, cyno GPRC5D HEK293F cells
T1 construct: on transfected HEK293F or Daudi cells; also called cynomolgus monkey GPRC5D
T1 chain: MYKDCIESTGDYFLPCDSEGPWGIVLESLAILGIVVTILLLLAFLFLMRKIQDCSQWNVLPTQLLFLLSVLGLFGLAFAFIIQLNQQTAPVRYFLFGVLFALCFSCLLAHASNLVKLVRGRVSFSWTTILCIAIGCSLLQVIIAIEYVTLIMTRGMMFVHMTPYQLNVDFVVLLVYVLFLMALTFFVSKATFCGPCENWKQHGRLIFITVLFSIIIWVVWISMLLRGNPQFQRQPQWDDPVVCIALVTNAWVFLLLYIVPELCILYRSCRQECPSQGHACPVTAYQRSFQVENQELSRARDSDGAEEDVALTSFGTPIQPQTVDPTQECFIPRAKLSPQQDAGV

[2] = molecular target: T1, cyno GPRC5D; assay: FACS, cyno GPRC5D cells, 1 ug/ml
Experimental: Whole cell phage panning was completed using the human GPRC5D cells as antigen, as described above. […] These mAbs were initially evaluated for binding to cyno GPRC5D using FACS. […] Briefly, FACS screening was performed by normalizing protein concentration to 1 ug/ml and 100 ul of protein was mixed with 200,000 cells per well. The mAb was allowed to incubate with cells for 1 hour at 4° C. The cells were then washed three times with PBS and 0.2% FBS. […] The cells and secondary antibody were incubated for 1 hour at 4° C. The cells were then washed three times with PBS and 0.2% FBS. The cells were washed again using PBS and 0.2% FBS and then analyzed on FACSarry.

[3] = molecular target: T2, human GPRC5D (human, UniProt Q9NZD1 1-345); assay: FACS, human GPRC5D HEK293F cells
T2 construct: on transfected HEK293/RBL cells or endogenous on myeloma cells (H929, MM1R, OPM2, LP1, JIM3, patient plasma cells); also called G protein-coupled receptor class C group 5 member D; hGPRC5D

[4] = molecular target: T3, murine GPRC5D (murine, UniProt Q9JIL6 1-344); assay: FACS, murine GPRC5D
T3 construct: also called mouse GPRC5D
T3 sequence: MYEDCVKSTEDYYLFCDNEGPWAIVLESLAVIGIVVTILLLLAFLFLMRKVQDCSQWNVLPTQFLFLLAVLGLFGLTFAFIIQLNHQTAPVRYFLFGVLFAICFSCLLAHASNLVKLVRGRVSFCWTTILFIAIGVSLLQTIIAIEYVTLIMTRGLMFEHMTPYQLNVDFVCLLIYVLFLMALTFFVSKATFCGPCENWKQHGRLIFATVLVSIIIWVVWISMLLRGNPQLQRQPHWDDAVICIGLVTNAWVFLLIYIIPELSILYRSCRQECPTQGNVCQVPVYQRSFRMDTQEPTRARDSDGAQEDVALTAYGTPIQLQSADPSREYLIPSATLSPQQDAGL

[5] = molecular target: T1, cyno GPRC5D; assay: cell-based or functional assay

T2 sequence (Q9NZD1 whole entry): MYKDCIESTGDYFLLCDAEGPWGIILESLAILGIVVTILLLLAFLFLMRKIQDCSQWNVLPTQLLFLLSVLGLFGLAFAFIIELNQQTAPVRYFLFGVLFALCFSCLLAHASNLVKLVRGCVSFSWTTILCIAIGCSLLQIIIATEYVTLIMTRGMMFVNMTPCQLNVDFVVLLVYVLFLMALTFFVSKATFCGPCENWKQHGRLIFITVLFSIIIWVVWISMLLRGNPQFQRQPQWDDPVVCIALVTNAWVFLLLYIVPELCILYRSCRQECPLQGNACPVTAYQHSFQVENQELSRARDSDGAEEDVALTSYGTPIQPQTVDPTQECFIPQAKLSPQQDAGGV

B1: GC5B332 (antibody, IgG1, V domains shown)
VH: EVQLVQSGAEVKKPGESLKISCKGSGYSFTSYWIGWVRQMPGKGLEWMGIIYPGDSDTRYSPSFQGQVTISADKSISTAYLQWSSLKASDTAMYYCARIGFYGRSFRIFDYWGQGTLVTVSS
VL: EIVLTQSPATLSLSPGERATLSCRASQSVSSYLAWYQQKPGQAPRLLIYDASNRATGIPARFSGSGSGTDFTLTISSLEPEDFAVYYCQQRSNWPLTFGQGTKVEIK
notes: GC5H35+PH9L3 (L6); human IgG4PAA
Which results are given for B1?
MFI [1]: 107000 MFI; MFI [2]: 192000 MFI; MFI [3]: 13300 MFI

B2: GC5B251 (antibody, IgG1, V domains shown)
VH: QVQLVQSGAEVKKPGSSVKVSCKASGGTFSSYGISWVRQAPGQGLEWMGGIIPIFGNINYAQKFQGRVTITADESTSTAYMELSSLRSEDTAVYYCARVSRRFKRFAYYFDYWGQGTLVTVSS
VL: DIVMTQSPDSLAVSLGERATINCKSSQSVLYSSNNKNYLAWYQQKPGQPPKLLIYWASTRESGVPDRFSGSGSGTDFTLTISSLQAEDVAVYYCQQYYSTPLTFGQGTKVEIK
notes: human IgG4PAA
How did the MFI [1] turn out when B2 was run?
The MFI was 74500 MFI.

What about the MFI [2] of the same binder?
Its MFI is 213000 MFI.

What about the MFI [3] of the same binder?
The MFI was 11400 MFI.

B3: GC5B252 (antibody, V domains shown)
VH: QVQLVQSGAEVKKPGSSVKVSCKASGGTFSSYGISWVRQAPGQGLEWMGGIIPIFGNINYAQKFQGRVTITADESTSTAYMELSSLRSEDTAVYYCARVSRRFKRFAYYFDYWGQGTLVTVSS
VL: EIVLTQSPATLSLSPGERATLSCRASQSVSSYLAWYQQKPGQAPRLLIYDASNRATGIPARFSGSGSGTDFTLTISSLEPEDFAVYYCQQRSNWPLTFGQGTKVEIK
notes: GC5H42+PH9L3
What does the source list for B3?
MFI [1]: 22000 MFI; MFI [2]: 63300 MFI; MFI [3]: 1500 MFI

B4: GCDB72 (bispecific antibody, IgG4, V domains shown)
VH 1: QVQLVQSGAEVKKPGASVKVSCKASGYSFTGYTMNWVRQAPGQGLEWMGLINPYNSDTNYAQKLQGRVTMTTDTSTSTAYMELRSLRSDDTAVYYCARVALRVALDYWGQGTLVTVSS
VL 1: DIQMTQSPSSLSASVGDRVTITCKASQNVATHVGWYQQKPGKAPKRLIYSASYRYSGVPSRFSGSGSGTEFTLTISNLQPEDFATYYCQQYNRYPYTFGQGTKLEIK
VH 2: EVQLVESGGGLVQPGGSLRLSCAASGFTFNTYAMNWVRQAPGKGLEWVARIRSKYNNYATYYAASVKGRFTISRDDSKNSLYLQMNSLKTEDTAVYYCARHGNFGNSYVSWFAYWGQGTLVTVSS
VL 2: QTVVTQEPSLTVSPGGTVTLTCRSSTGAVTTSNYANWVQQKPGQAPRGLIGGTNKRAPGTPARFSGSLLGGKAALTLSGVQPEDEAEYYCALWYSNLWVFGGGTKLTVL
notes: IgG4-PAA by Fab arm exchange; CD3 arm also F405L, R409K; also called GC5B596 x CD3B219
What does the source list for B4?
MFI [4]: 481 MFI; T-cell redirection cytotoxicity EC50, cyno GPRC5D HEK cells [5]: 3.41 nM

B5: GC5B163 (antibody, V domains shown)
VH: EVQLVQSGAEVKKPGESLKISCKGSGYSFTSYWIGWVRQMPGKGLEWMGIIYPGDSDTRYSPSFQGQVTISADKSISTAYLQWSSLKASDTAMYYCARVYSFGGRHKALFDYWGQGTLVTVSS
VL: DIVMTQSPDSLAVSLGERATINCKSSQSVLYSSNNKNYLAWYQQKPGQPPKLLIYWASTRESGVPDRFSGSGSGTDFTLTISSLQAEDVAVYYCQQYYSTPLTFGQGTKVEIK
notes: GC5H36+PH9L2
B5 was tested. Which MFI [1] did it give?
Its MFI is 7600 MFI.

What about the MFI [2] of the same binder?
Its MFI is 22000 MFI.

And the MFI [3]?
The MFI was 840 MFI.

B6: GC5B164 (antibody, IgG1, V domains shown)
VH: EVQLVQSGAEVKKPGESLKISCKGSGYSFTSYWIGWVRQMPGKGLEWMGIIYPGDSDTRYSPSFQGQVTISADKSISTAYLQWSSLKASDTAMYYCARVYSFGGRHKALFDYWGQGTLVTVSS
VL: EIVLTQSPATLSLSPGERATLSCRASQSVSSYLAWYQQKPGQAPRLLIYDASNRATGIPARFSGSGSGTDFTLTISSLEPEDFAVYYCQQRSNWPLTFGQGTKVEIK
notes: GC5H36+PH9L3 (L6); human IgG4PAA
Which results are given for B6?
MFI [1]: 78700 MFI; MFI [2]: 122000 MFI; MFI [3]: 12700 MFI
